US20220010021A1 (Sanofi, published 2022)
Residue numbers refer to the chain shown, from its start.

T1: human beta-Klotho (KLB) (human, UniProt Q86Z14 53-997)
T1 construct: also called human KLB
T1 sequence (looked up): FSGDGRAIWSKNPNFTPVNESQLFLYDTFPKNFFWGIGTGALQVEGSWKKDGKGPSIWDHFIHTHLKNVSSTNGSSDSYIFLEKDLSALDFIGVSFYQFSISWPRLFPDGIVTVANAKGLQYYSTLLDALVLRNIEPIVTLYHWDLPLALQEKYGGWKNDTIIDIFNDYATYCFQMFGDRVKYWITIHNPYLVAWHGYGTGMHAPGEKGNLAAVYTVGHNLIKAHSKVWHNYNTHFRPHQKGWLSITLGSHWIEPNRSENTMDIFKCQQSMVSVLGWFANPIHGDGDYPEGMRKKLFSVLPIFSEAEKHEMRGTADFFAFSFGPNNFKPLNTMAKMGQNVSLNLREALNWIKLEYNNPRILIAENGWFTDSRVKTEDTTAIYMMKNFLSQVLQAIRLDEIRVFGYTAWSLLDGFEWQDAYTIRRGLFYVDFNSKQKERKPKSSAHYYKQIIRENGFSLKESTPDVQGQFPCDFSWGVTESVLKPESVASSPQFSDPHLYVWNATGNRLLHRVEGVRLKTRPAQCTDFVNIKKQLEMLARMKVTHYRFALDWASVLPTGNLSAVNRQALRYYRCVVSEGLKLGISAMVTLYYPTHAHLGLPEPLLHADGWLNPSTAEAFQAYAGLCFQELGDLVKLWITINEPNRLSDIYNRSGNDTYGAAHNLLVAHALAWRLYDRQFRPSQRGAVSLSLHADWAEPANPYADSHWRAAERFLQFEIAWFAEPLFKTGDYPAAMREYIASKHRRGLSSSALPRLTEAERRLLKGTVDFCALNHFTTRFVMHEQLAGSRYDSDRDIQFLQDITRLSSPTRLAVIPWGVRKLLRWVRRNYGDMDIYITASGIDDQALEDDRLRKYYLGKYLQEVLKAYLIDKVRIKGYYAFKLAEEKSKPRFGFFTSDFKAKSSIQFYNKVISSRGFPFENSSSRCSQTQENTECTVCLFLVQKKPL

B1: 16H7 variant, light chain N26S (antibody, IgG4, V domains shown)
VH: not shown
VL: SYVLTQPPSVSVAPGQTARITCGGNSIGSESVHWYQQKPGQAPVLVVYDDSDRPSGIPERFSGSNSGNTATLTISRVEAGDEADYYCQVWDGNSDHVVFGGGTKLTVLG
notes: IgG4 backbone; copies: 2 + 2
B2: 16H7 variant, light chain N26V (antibody, human IgG4 S228P, lambda, V domains shown)
VH: not shown
VL: B1 VL with S26V
notes: IgG4 backbone
B3: 16H7 variant, light chain P54F (antibody, human IgG4 S228P, lambda, V domains shown)
VH: not shown
VL: B1 VL with S26N, P54F
notes: IgG4 backbone
B4: 16H7 variant, light chain P54M (antibody, human IgG4 S228P, lambda, V domains shown)
VH: not shown
VL: B1 VL with S26N, P54M
notes: IgG4 backbone
B5: 16H7 variant, light chain P54T (antibody, human IgG4 S228P, lambda, V domains shown)
VH: not shown
VL: B1 VL with S26N, P54T
notes: IgG4 backbone
B6: 16H7 variant, light chain P54I (antibody, human IgG4 S228P, lambda, V domains shown)
VH: not shown
VL: B1 VL with S26N, P54I
notes: IgG4 backbone
B7: 16H7 variant, light chain R53L (antibody, human IgG4 S228P, lambda, V domains shown)
VH: not shown
VL: B1 VL with S26N, R53L
notes: IgG4 backbone
B8: 16H7 variant, light chain R53I (antibody, human IgG4 S228P, lambda, V domains shown)
VH: not shown
VL: B1 VL with S26N, R53I
notes: IgG4 backbone
B9: 16H7 variant, light chain Q88M (antibody, IgG4, V domains shown)
VH: not shown
VL: B1 VL with S26N, Q88M
notes: IgG4 backbone; copies: 2 + 2
B10: 16H7 variant, light chain R53H (antibody, human IgG4 S228P, lambda, V domains shown)
VH: not shown
VL: B1 VL with S26N, R53H
notes: IgG4 backbone
B11: 16H7 variant, light chain Q88G (antibody, human IgG4 S228P, lambda, V domains shown)
VH: not shown
VL: B1 VL with S26N, Q88G
notes: IgG4 backbone
B12: 16H7 variant, light chain P54N (antibody, human IgG4 S228P, lambda, V domains shown)
VH: not shown
VL: B1 VL with S26N, P54N
notes: IgG4 backbone
B13: 16H7 variant, light chain P54S (antibody, human IgG4 S228P, lambda, V domains shown)
VH: not shown
VL: B1 VL with S26N, P54S
notes: IgG4 backbone
B14: 16H7 variant, light chain Q88L (antibody, IgG4, V domains shown)
VH: not shown
VL: B1 VL with S26N, Q88L
notes: IgG4 backbone; copies: 2 + 2
B15: 16H7 variant, light chain R53M (antibody, human IgG4 S228P, lambda, V domains shown)
VH: not shown
VL: B1 VL with S26N, R53M
notes: IgG4 backbone
B16: 16H7 variant, light chain R53Q (antibody, human IgG4 S228P, lambda, V domains shown)
VH: not shown
VL: B1 VL with S26N, R53Q
notes: IgG4 backbone
B17: 16H7 variant, light chain P54D (antibody, human IgG4 S228P, lambda, V domains shown)
VH: not shown
VL: B1 VL with S26N, P54D
notes: IgG4 backbone
B18: 16H7 variant, light chain P54C (antibody, human IgG4 S228P, lambda, V domains shown)
VH: not shown
VL: B1 VL with S26N, P54C
notes: IgG4 backbone
B19: 16H7 variant, light chain P54V (antibody, human IgG4 S228P, lambda, V domains shown)
VH: not shown
VL: B1 VL with S26N, P54V
notes: IgG4 backbone
B20: 16H7 variant, light chain P54L (antibody, human IgG4 S228P, lambda, V domains shown)
VH: not shown
VL: B1 VL with S26N, P54L
notes: IgG4 backbone
B21: 16H7 variant, light chain R53K (antibody, human IgG4 S228P, lambda, V domains shown)
VH: not shown
VL: B1 VL with S26N, R53K
notes: IgG4 backbone
B22: 16H7 variant, light chain Q88A (antibody, human IgG4 S228P, lambda, V domains shown)
VH: not shown
VL: B1 VL with S26N, Q88A
notes: IgG4 backbone
B23: 16H7 variant, light chain N26W (antibody, IgG4, V domains shown)
VH: not shown
VL: B1 VL with S26W
notes: IgG4 backbone; copies: 2 + 2
B24: 16H7 variant, light chain R53P (antibody, human IgG4 S228P, lambda, V domains shown)
VH: not shown
VL: B1 VL with S26N, R53P
notes: IgG4 backbone
B25: 16H7 variant, light chain P54G (antibody, human IgG4 S228P, lambda, V domains shown)
VH: not shown
VL: B1 VL with S26N, P54G
notes: IgG4 backbone
B26: 16H7 variant, light chain P54Y (antibody, human IgG4 S228P, lambda, V domains shown)
VH: not shown
VL: B1 VL with S26N, P54Y
notes: IgG4 backbone
B27: 16H7 variant, light chain P54W (antibody, human IgG4 S228P, lambda, V domains shown)
VH: not shown
VL: B1 VL with S26N, P54W
notes: IgG4 backbone
B28: 16H7 variant, light chain R53A (antibody, human IgG4 S228P, lambda, V domains shown)
VH: not shown
VL: B1 VL with S26N, R53A
notes: IgG4 backbone
B29: 16H7 variant, light chain P54H (antibody, human IgG4 S228P, lambda, V domains shown)
VH: not shown
VL: B1 VL with S26N, P54H
notes: IgG4 backbone
B30: 16H7 variant, light chain P54R (antibody, human IgG4 S228P, lambda, V domains shown)
VH: not shown
VL: B1 VL with S26N, P54R
notes: IgG4 backbone
B31: 16H7 variant, light chain N26Y (antibody, human IgG4 S228P, lambda, V domains shown)
VH: not shown
VL: B1 VL with S26Y
notes: IgG4 backbone
B32: 16H7 variant, light chain R53C (antibody, human IgG4 S228P, lambda, V domains shown)
VH: not shown
VL: B1 VL with S26N, R53C
notes: IgG4 backbone
B33: 16H7 variant, light chain P54K (antibody, human IgG4 S228P, lambda, V domains shown)
VH: not shown
VL: B1 VL with S26N, P54K
notes: IgG4 backbone

What was measured:
[1] = molecular target: human FGFR1c/KLB cell surface receptor complex on iLite FGF21 reporter cells (human, UniProt P11362 22-822; Q86Z14 1-1044); test: cell-based or functional assay; for Mean E max (%): reference of the scale not given here
Sequence of human FGFR1c/KLB cell surface receptor complex on iLite FGF21 reporter cells (P11362 22-822, chain 1 of 2): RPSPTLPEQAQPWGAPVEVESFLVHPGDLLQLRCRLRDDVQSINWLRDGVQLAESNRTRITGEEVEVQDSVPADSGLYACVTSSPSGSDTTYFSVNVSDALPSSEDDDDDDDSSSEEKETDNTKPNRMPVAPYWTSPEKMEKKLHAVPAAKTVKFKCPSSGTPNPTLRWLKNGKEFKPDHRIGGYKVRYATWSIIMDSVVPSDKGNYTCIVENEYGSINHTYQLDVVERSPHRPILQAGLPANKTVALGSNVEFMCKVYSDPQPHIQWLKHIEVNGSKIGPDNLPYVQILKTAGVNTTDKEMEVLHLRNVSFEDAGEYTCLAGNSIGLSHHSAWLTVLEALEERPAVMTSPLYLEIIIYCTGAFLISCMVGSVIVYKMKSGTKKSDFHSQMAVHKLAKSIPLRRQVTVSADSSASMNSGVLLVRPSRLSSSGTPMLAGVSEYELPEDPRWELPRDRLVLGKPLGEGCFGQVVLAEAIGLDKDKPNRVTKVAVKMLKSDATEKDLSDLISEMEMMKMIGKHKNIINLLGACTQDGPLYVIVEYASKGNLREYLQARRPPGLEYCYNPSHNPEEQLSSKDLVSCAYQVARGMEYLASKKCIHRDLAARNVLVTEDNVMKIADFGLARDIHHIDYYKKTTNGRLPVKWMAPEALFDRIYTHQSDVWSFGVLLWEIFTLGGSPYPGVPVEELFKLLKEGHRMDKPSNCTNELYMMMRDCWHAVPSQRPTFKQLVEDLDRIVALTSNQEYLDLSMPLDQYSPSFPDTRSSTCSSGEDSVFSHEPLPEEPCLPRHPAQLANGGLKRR
Sequence of human FGFR1c/KLB cell surface receptor complex on iLite FGF21 reporter cells (Q86Z14 whole entry, chain 2 of 2): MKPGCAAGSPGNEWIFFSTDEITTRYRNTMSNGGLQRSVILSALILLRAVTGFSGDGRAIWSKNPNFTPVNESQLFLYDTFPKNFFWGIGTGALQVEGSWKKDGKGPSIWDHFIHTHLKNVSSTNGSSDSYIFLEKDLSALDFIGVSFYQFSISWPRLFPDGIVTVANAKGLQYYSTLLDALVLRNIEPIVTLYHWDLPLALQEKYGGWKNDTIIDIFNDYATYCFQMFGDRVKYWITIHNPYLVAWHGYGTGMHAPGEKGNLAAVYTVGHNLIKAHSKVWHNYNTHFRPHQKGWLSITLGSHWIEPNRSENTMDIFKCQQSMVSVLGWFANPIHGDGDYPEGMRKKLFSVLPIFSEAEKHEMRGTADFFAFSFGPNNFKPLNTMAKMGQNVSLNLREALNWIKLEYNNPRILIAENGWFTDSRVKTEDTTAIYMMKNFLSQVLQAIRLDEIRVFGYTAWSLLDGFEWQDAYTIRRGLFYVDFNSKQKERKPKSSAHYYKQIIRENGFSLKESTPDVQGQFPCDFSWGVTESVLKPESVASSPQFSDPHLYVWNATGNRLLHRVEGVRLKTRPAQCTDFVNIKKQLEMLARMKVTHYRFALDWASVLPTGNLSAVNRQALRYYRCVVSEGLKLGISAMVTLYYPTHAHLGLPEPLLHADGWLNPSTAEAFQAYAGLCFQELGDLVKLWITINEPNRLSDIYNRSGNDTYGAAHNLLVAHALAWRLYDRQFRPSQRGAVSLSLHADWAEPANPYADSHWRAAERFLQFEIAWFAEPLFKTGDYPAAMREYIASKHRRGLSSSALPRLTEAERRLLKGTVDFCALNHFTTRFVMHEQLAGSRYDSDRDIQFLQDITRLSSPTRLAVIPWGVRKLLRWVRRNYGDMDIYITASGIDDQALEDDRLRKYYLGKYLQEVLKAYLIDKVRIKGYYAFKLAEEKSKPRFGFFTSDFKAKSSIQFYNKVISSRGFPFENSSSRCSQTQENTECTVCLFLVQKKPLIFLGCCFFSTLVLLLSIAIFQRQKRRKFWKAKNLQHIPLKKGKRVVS

human beta-Klotho (KLB) = molecular target: T1, human beta-Klotho (KLB); test: BLI off-rate screen (Octet), Ab captured via Fc;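 note: antibody supernatants applied at 25 µg/mL, dissociation monitored over 1800 s in D-PBS with 0.1% BSA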

| Binder | Mean E max (%) [1] [%] | Mean EC50 [1] [nM] | koff (human beta-Klotho (KLB)) [s⁻¹] |
| --- | --- | --- | --- |
| B1 | 101 | 0.118 | 1e-07 |
| B2 | 106 | 0.118 | 3.5e-05 |
| B3 | 105 | 0.143 | 0.00012 |
| B4 | 98 | 0.087 | 3.2e-05 |
| B5 | 108 | 0.113 | 0.00018 |
| B6 | 112 | 0.115 | 3.5e-05 |
| B7 | 106 | 0.151 | 2e-05 |
| B8 | 100 | 0.151 | 1.7e-05 |
| B9 | 90 | 0.104 | 9.9e-05 |
| B10 | 103 | 0.153 | 0.00015 |
| B11 | 110 | 0.129 | 0.00017 |
| B12 | 105 | 0.15 | 0.00014 |
| B13 | 102 | 0.103 | 7.9e-05 |
| B14 | 107 | 0.134 | 9.9e-05 |
| B15 | 95 | 0.099 | 0.00018 |
| B16 | 100 | 0.131 | 0.00024 |
| B17 | 96 | 0.115 | 0.00028 |

| Binder | Mean E max (%) [1] [%] | Mean EC50 [1] [nM] | koff (human beta-Klotho (KLB)) [s⁻¹] |
| --- | --- | --- | --- |
| B18 | 100 | 0.116 | 0.00012 |
| B19 | 109 | 0.11 | 4.1e-05 |
| B20 | 108 | 0.133 | 9.6e-05 |
| B21 | 98 | 0.114 | 4e-05 |
| B22 | 108 | 0.133 | 0.00011 |
| B23 | 105 | 0.129 | 6.7e-05 |
| B24 | 92 | 0.126 | 0.00028 |
| B25 | 114 | 0.141 | 5.1e-05 |
| B26 | 110 | 0.15 | 8.3e-05 |
| B27 | 98 | 0.091 | 0.00017 |
| B28 | 89 | 0.132 | 0.0002 |
| B29 | 100 | 0.111 | 0.00014 |
| B30 | 104 | 0.111 | 0.00011 |
| B31 | 110 | 0.124 | 3.7e-05 |
| B32 | 107 | 0.147 | 0.00044 |
| B33 | 100 | 0.131 | 0.00016 |
